For assay [1], the target named is Aβ1-20 peptide. As to the kind of experiment: solution-phase equilibrium titration, free antibody read by ELISA on ADDL-coated plate, GRAFIT fit. (In an ELISA, binding on a coated surface is turned into a signal by an enzyme label.)
In assay [2] the target is Aβ1-40 monomer. The description is as above.
Assay [3] deals with amyloid β-derived diffusible ligands (ADDLs), oligomers of Aβ1-42. The assay is described as above.
Assay [4] addresses fibrillar Aβ (Aβ1-42 fibrils). Described as above.
Assay [5] addresses Aβ1-42 monomer. The experiment in a line: ELISA, IgG2 antibodies.
For assay [6], the target named is biotinylated ADDLs. The experiment in a line: ELISA on coated antigen, chemiluminescence; antibody at 0 timepoint.
The target in assay [7] is biotinylated ADDLs. As to the kind of experiment: ELISA on coated antigen, chemiluminescence; antibody stored 1 month at 4°.
For assay [8], the target named is biotinylated ADDLs. The experiment in a line: ELISA on coated antigen, chemiluminescence; antibody stored 1 month at 25°.
The target in assay [9] is biotinylated ADDLs. The experiment in a line: ELISA on coated antigen, chemiluminescence; antibody stored 1 month at 40°.

Chain of Aβ1-20 peptide (peptide, as listed by the source): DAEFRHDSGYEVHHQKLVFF

In general, Kd refers to the concentration at which binding is half-saturated. Take WO-2 (antibody): the Kd in assay [1] came to 19.3 nM; in assay [2] it was 6.15 nM; in assay [3], 0.57 nM; in [4], 1.15 nM.

A word on the EC50: it is the midpoint of the concentration-response curve. Higher therefore signals weaker potency. With anti-ADDL antibody 19.3, the EC50 was 18 nM in assay [5]; 1.1 nM in [6]; 1.7 nM in assay [7]; 2.1 nM in assay [8]; 5.9 nM in assay [9].

Values taken from US20130130288A1.
